Starred links: 1 amine or outer side, 2 acyl side, 3 side chain; linkers in the order of their positions; H or OH if unused. Non-standard residues stand in square brackets, D forms with d. Groups on a side chain read outwards from the residue. *: point of attachment. Tet2 = (S)-2-amino-4-(1H-tetrazol-5-yl)butanoic acid, O=C([C@H](CCc1nn[nH]n1)N[*:1])[*:2]; Ala(1H-tetrazol-5-yl) = N[C@@H](Cc1nnn[nH]1)C(=O)O; C18 diacid = O=C(O)CCCCCCCCCCCCCCCCC(=O)*; Dip = N[C@H](C(=O)O)C(c1ccccc1)c1ccccc1; His(τ-Me) = Cn1cnc(C[C@H](N)C(=O)O)c1; Palmitoyl = CCCCCCCCCCCCCCCC(=O)*; β3hF = N[C@H](CC(=O)O)Cc1ccccc1; His(1-Me) = 1-methylhistidine; Isovaleryl = CC(C)CC(=O)*; AEEA = NCCOCCOCC(=O)O; Ahx = NCCCCCC(=O)O
biological target: T1, human ferroportin (SLC40A1) fused in frame with GFP, stably expressed in HEK293 cells (human, UniProt Q9NP59 1-571); experiment: cell-based or functional assay
T1 sequence (looked up): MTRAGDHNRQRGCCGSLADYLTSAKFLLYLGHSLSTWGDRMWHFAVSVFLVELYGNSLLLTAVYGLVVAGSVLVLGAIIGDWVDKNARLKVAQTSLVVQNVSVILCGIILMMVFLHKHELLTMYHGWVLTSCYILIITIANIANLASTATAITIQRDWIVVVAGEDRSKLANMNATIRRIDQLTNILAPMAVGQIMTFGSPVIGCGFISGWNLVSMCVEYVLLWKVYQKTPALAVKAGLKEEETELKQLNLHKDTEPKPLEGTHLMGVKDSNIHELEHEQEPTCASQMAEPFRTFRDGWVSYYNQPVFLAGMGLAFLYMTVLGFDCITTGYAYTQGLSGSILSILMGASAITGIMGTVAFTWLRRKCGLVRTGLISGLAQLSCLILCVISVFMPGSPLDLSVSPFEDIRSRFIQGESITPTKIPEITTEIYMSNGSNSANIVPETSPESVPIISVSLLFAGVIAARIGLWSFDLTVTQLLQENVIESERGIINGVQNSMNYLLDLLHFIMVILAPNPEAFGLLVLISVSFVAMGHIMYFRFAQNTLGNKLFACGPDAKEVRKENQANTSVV

Row | Binder | FPN EC50
1 | Isovaleryl-[Ala(1H-tetrazol-5-yl)]T[His(τ-Me)][Dip]PAI[β3hF][dK]A-NH2 (SMILES CC[C@H](C)[C@H](NC(=O)[C@H](C)NC(=O)[C@@H]1CCCN1C(=O)[C@@H](NC(=O)[C@H](Cc1cn(C)cn1)NC(=O)[C@@H](NC(=O)[C@H](Cc1nnn[nH]1)NC(=O)CC(C)C)[C@@H](C)O)C(c1ccccc1)c1ccccc1)C(=O)N[C@H](CC(=O)N[C@H](CCCCN)C(=O)N[C@@H](C)C(N)=O)Cc1ccccc1) [Isovaleric Acid-[Tet1]-T-[(1-Me)His]-[Dpa]-P-A-I-[bhPhe]-[(D)Lys]-A-NH2] | 241 nM
2 | Isovaleryl-ET[His(1-Me)][Dip]PAIK(Ac)[β3hF][dK]A-NH2 [Isovaleric Acid-E-T-[(1-Me)His]-[Dpa]-P-A-I-[Lys(Ac)]-[bhPhe]-[(D)Lys]-A-NH2] | > 3000 nM
3 | Isovaleryl-EAH[Dip]PAI[dK][β3hF]K([Ahx-Palmitoyl])[dK]A-NH2 (SMILES CCCCCCCCCCCCCCCC(=O)NCCCCCC(=O)NCCCC[C@H](NC(=O)C[C@H](Cc1ccccc1)NC(=O)[C@@H](CCCCN)NC(=O)[C@@H](NC(=O)[C@H](C)NC(=O)[C@@H]1CCCN1C(=O)[C@@H](NC(=O)[C@H](Cc1c[nH]cn1)NC(=O)[C@H](C)NC(=O)[C@H](CCC(=O)O)NC(=O)CC(C)C)C(c1ccccc1)c1ccccc1)[C@@H](C)CC)C(=O)N[C@H](CCCCN)C(=O)N[C@@H](C)C(N)=O) [Isovaleric Acid-E-A-H-[Dpa]-P-A-I-[(D)Lys]-[bhPhe]-[Lys(Ahx_Palm)]-[(D)Lys]-A-NH2] | 492 nM
4 | Isovaleryl-[Ala(1H-tetrazol-5-yl)]T[His(τ-Me)][Dip]PAI[β3hF][dK]-NH2 (SMILES CC[C@H](C)[C@H](NC(=O)[C@H](C)NC(=O)[C@@H]1CCCN1C(=O)[C@@H](NC(=O)[C@H](Cc1cn(C)cn1)NC(=O)[C@@H](NC(=O)[C@H](Cc1nnn[nH]1)NC(=O)CC(C)C)[C@@H](C)O)C(c1ccccc1)c1ccccc1)C(=O)N[C@H](CC(=O)N[C@H](CCCCN)C(N)=O)Cc1ccccc1) [Isovaleric Acid-[Tet1]-T-[(1-Me)His]-[Dpa]-P-A-I-[bhPhe]-[(D)Lys]-NH2] | 378 nM
5 | Isovaleryl-[Tet2]TH[Dip]PAIK(Ac)[β3hF][dK]A-NH2 (SMILES CC[C@H](C)[C@H](NC(=O)[C@H](C)NC(=O)[C@@H]1CCCN1C(=O)[C@@H](NC(=O)[C@H](Cc1c[nH]cn1)NC(=O)[C@@H](NC(=O)[C@H](CCc1nn[nH]n1)NC(=O)CC(C)C)[C@@H](C)O)C(c1ccccc1)c1ccccc1)C(=O)N[C@@H](CCCCNC(C)=O)C(=O)N[C@H](CC(=O)N[C@H](CCCCN)C(=O)N[C@@H](C)C(N)=O)Cc1ccccc1) [Isovaleric Acid-[Tet2]-T-H-[Dpa]-P-A-I-[Lys(Ac)]-[bhPhe]-[(D)Lys]-A-NH2] | 117 nM
6 | Isovaleryl-ETH[Dip]PAI[β3hF][dK]A-NH2 (SMILES CC[C@H](C)[C@H](NC(=O)[C@H](C)NC(=O)[C@@H]1CCCN1C(=O)[C@@H](NC(=O)[C@H](Cc1c[nH]cn1)NC(=O)[C@@H](NC(=O)[C@H](CCC(=O)O)NC(=O)CC(C)C)[C@@H](C)O)C(c1ccccc1)c1ccccc1)C(=O)N[C@H](CC(=O)N[C@H](CCCCN)C(=O)N[C@@H](C)C(N)=O)Cc1ccccc1) [Isovaleric Acid-E-T-H-[Dpa]-P-A-I-[bhPhe]-[(D)Lys]-A-NH2] | 915 nM
7 | Isovaleryl-ETA[Dip]PAI[dK][β3hF]K([Ahx-Palmitoyl])[dK]A-NH2 (SMILES CCCCCCCCCCCCCCCC(=O)NCCCCCC(=O)NCCCC[C@H](NC(=O)C[C@H](Cc1ccccc1)NC(=O)[C@@H](CCCCN)NC(=O)[C@@H](NC(=O)[C@H](C)NC(=O)[C@@H]1CCCN1C(=O)[C@@H](NC(=O)[C@H](C)NC(=O)[C@@H](NC(=O)[C@H](CCC(=O)O)NC(=O)CC(C)C)[C@@H](C)O)C(c1ccccc1)c1ccccc1)[C@@H](C)CC)C(=O)N[C@H](CCCCN)C(=O)N[C@@H](C)C(N)=O) [Isovaleric Acid-E-T-A-[Dpa]-P-A-I-[(D)Lys]-[bhPhe]-[Lys(Ahx_Palm)]-[(D)Lys]-A-NH2] | 356 nM
8 | Isovaleryl-[Ala(1H-tetrazol-5-yl)]TH[Dip]PAIK(Ac)[β3hF][dK]A-NH2 (SMILES CC[C@H](C)[C@H](NC(=O)[C@H](C)NC(=O)[C@@H]1CCCN1C(=O)[C@@H](NC(=O)[C@H](Cc1c[nH]cn1)NC(=O)[C@@H](NC(=O)[C@H](Cc1nnn[nH]1)NC(=O)CC(C)C)[C@@H](C)O)C(c1ccccc1)c1ccccc1)C(=O)N[C@@H](CCCCNC(C)=O)C(=O)N[C@H](CC(=O)N[C@H](CCCCN)C(=O)N[C@@H](C)C(N)=O)Cc1ccccc1) [Isovaleric Acid-[Tet1]-T-H-[Dpa]-P-A-I-[Lys(Ac)]-[bhPhe]-[(D)Lys]-A-NH2] | 18.9 nM
9 | Isovaleryl-[Ala(1H-tetrazol-5-yl)]T[His(τ-Me)][Dip]PAIK(Ac)[β3hF][dK]A-NH2 (SMILES CC[C@H](C)[C@H](NC(=O)[C@H](C)NC(=O)[C@@H]1CCCN1C(=O)[C@@H](NC(=O)[C@H](Cc1cn(C)cn1)NC(=O)[C@@H](NC(=O)[C@H](Cc1nnn[nH]1)NC(=O)CC(C)C)[C@@H](C)O)C(c1ccccc1)c1ccccc1)C(=O)N[C@@H](CCCCNC(C)=O)C(=O)N[C@H](CC(=O)N[C@H](CCCCN)C(=O)N[C@@H](C)C(N)=O)Cc1ccccc1) [Isovaleric Acid-[Tet1]-T-[(1-Me)His]-[Dpa]-P-A-I-[Lys(Ac)]-[bhPhe]-[(D)Lys]-A-NH2] | > 3000 nM
10 | Isovaleryl-ETH[Dip]PAIK([AEEA-AEEA-Ahx-C18 diacid])[dK][β3hF][dK]A-NH2 (SMILES CC[C@H](C)[C@H](NC(=O)[C@H](C)NC(=O)[C@@H]1CCCN1C(=O)[C@@H](NC(=O)[C@H](Cc1c[nH]cn1)NC(=O)[C@@H](NC(=O)[C@H](CCC(=O)O)NC(=O)CC(C)C)[C@@H](C)O)C(c1ccccc1)c1ccccc1)C(=O)N[C@@H](CCCCNC(=O)COCCOCCNC(=O)COCCOCCNC(=O)CCCCCNC(=O)CCCCCCCCCCCCCCCCC(=O)O)C(=O)N[C@H](CCCCN)C(=O)N[C@H](CC(=O)N[C@H](CCCCN)C(=O)N[C@@H](C)C(N)=O)Cc1ccccc1) [Isovaleric Acid-E-T-H-[Dpa]-P-A-I-[Lys(1Peg2_1Peg2_Ahx_C18_Diacid-[(D)Lys]-[bhPhe]-[(D)Lys]-A-NH2] | 325 nM
11 | Isovaleryl-[Tet2]T[His(τ-Me)][Dip]PAIK(Ac)[β3hF][dK]-NH2 (SMILES CC[C@H](C)[C@H](NC(=O)[C@H](C)NC(=O)[C@@H]1CCCN1C(=O)[C@@H](NC(=O)[C@H](Cc1cn(C)cn1)NC(=O)[C@@H](NC(=O)[C@H](CCc1nn[nH]n1)NC(=O)CC(C)C)[C@@H](C)O)C(c1ccccc1)c1ccccc1)C(=O)N[C@@H](CCCCNC(C)=O)C(=O)N[C@H](CC(=O)N[C@H](CCCCN)C(N)=O)Cc1ccccc1) [Isovaleric Acid-[Tet2]-T-[(1-Me)His]-[Dpa]-P-A-I-[Lys(Ac)]-[bhPhe]-[(D)Lys]-NH2] | > 3000 nM
12 | Isovaleryl-ETH[Dip]PAI[dK]AK([Ahx-Palmitoyl])[dK]A-NH2 (SMILES CCCCCCCCCCCCCCCC(=O)NCCCCCC(=O)NCCCC[C@H](NC(=O)[C@H](C)NC(=O)[C@@H](CCCCN)NC(=O)[C@@H](NC(=O)[C@H](C)NC(=O)[C@@H]1CCCN1C(=O)[C@@H](NC(=O)[C@H](Cc1c[nH]cn1)NC(=O)[C@@H](NC(=O)[C@H](CCC(=O)O)NC(=O)CC(C)C)[C@@H](C)O)C(c1ccccc1)c1ccccc1)[C@@H](C)CC)C(=O)N[C@H](CCCCN)C(=O)N[C@@H](C)C(N)=O) [Isovaleric Acid-E-T-H-[Dpa]-P-A-I-[(D)Lys]-A-[Lys(Ahx_Palm)]-[(D)Lys]-A-NH2] | 50.6 nM
13 | Isovaleryl-[Tet2]T[His(τ-Me)][Dip]PAIK(Ac)[β3hF][dK]A-NH2 [Isovaleric Acid-[Tet2]-T-[(1-Me)His]-[Dpa]-P-A-I-[Lys(Ac)]-[bhPhe]-[(D)Lys]-A-NH2] | > 3000 nM

From patent publication US20240066131A1 (Protagonist Therapeutics, Inc., priority 2020, published 2024)
